Measurements: patent US20240317884A1, “METHOD FOR ALLOWING IMMUNE CELLS INFILTRATION IN TUMORS” (Alethia Biotherapeutics Inc., priority 2021, published 2024)
“Also recorded” adds a separate entry of the source.

Key:
[1] = test system: tumor biopsies; assay: Phase I: necrosis in tumor biopsies; assay type: in vivo, human; settings: for Necrosis Pre-Treatment: baseline
Method: (§1) Tumor biopsies were collected during the standard dose escalation to investigate the presence of AB-16B5 within the tumor. A total of 4 pre-treatment and 5 post-treatment tumor biopsies were suitable for analysis. These post-treatment tumor biopsies were collected following dosing on Cycle 2 Day 15 (between Cycle 2 Day 15 and Cycle 2 Day 18). The biopsy sites were liver (n=2), lymph node (n=2), bladder, skin and vulva.
(§2) Immunohistochemistry studies were conducted on paired tumor biopsies to determine if the treatment with AB-16B5 was associated with a reacquisition of an epithelial phenotype.

[2] = test system: advanced solid malignancy; assay: Phase I study AB-16B5-101: tumor response (RECIST); assay type: in vivo, human
[3] = test system: E-cadherin, vimentin; assay: Phase I: immunohistochemistry on paired tumor biopsies (epithelial phenotype); assay type: in vivo, human
Method: as §2

[4] = Non-clinical toxicity, weekly administration, monkeys; assay type: in vivo, Rhesus monkeys
Source text: Consequently, they were not considered to be toxicologically significant.

[5] = Phase I: plasma pharmacokinetics (non-compartmental analysis); assay type: in vivo, human; settings: for AUC0-t / Cmax / Thalf: mean; for AUC0-t / Cmax / Thalf / Tmax: plasma, first dose of cycle; for Tmax: median
Source text: Plasma PK parameters for AB-16B5 were derived from the concentration-time profiles following the first dose of Cycle 1 and the first dose of Cycle 2 using a non-compartmental analysis (NCA) with Phoenix WinNonlin.

[6] = test system: CA 15-3, CA-125, CA 19-9, CEA, LDH and PSA; assay: Phase I: circulating tumor biomarkers; assay type: in vivo, human
Method: Several well-established circulating biomarkers were evaluated to monitor the response to therapy. They included CA 15-3, CA-125, CA 19-9, CEA, LDH and PSA.

[7] = test system: tumor biopsies; assay: Human tumor biopsies of patients treated with AB-16B5 as single agent (H&E); assay type: in vivo; settings: after the second cycle
Method: In parallel human tumor biopsies of patients treated with AB-16B5 as single agent were analyzed (FIGS. 2B-2E). Needle biopsies obtained from a patient with metastatic thyroid cancer and form a patient with inoperable metastatic gastric cancer were sectioned and stained with hematoxylin and eosin. An on-treatment biopsy from a patient with thyroid cancer metastasic to the lungs was obtained after the second cycle treatment with AB-16B5. […] Hemosiderin-laden macrophages were observed inside necrotic areas some reflecting red blood cell extravasation associated with necrosis (not shown). […] On display one finds.

[8] = Phase I: detection of AB-16B5 in tumor biopsies; assay type: in vivo, human; settings: for Detection of AB-16B5 in Tumor Biopsies, Post-Treatment Biopsy: 12.0 mg/kg, after dosing on Cycle 2 Day 15
Source text: as §1

[9] = target: T1, sCLU (Macaca mulatta, UniProt F6S885); assay: sCLU serum concentrations after single dose of AB-16B5; assay type: in vivo; settings: Rhesus monkeys
T1 construct: from tissue; host or cells: serum of Rhesus monkeys dosed with AB-16B5
T1 sequence (F6S885 22-448): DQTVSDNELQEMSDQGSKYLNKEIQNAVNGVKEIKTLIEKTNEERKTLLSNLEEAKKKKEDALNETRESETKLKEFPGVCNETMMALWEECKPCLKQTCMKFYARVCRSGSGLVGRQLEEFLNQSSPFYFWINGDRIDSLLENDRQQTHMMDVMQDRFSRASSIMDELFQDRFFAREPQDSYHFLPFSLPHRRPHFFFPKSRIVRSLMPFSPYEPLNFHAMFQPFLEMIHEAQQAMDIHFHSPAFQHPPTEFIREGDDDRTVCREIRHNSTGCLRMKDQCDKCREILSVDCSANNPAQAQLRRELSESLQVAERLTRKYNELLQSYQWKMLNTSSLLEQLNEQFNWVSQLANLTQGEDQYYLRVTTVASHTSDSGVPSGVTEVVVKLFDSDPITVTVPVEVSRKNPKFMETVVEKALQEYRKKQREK
Source text: There was an approximate 70% increase in systemic exposure following repeated dosing from Day 1 to Day 26 which is consistent with the elimination half-life of AB-16B5 and the dosing intervals. […] The sCLU concentrations were generally back to their baseline levels after 3 to 5 days. The concurrent decrease in sCLU concentrations immediately following dosing with AB-16B5 is consistent with an antigen-sink phenomenon.

[10] = Subject 006, Breast, biopsy site Skin, 9.0 mg/kg
[11] = Subject 007, Gastric, biopsy site Gastric, 9.0 mg/kg
[12] = Subject 012, Breast, biopsy site Skin, 12.0 mg/kg
[13] = Subject 012, Breast, biopsy site Skin
[14] = Subject 013, Prostate, biopsy site Bladder, 12.0 mg/kg
[15] = Subject 013, Prostate, biopsy site Bladder
[16] = RECIST-evaluable population (14 subjects), 1.5-12.0 mg/kg
[17] = Subject 001, Pancreatic, 1.5 mg/kg weekly IV, 2 cycles
[18] = Subject 003, Soft Tissue Sarcoma, 6.0 mg/kg weekly IV, 2 cycles
[19] = Subject 005, Prostate, 6.0 mg/kg weekly IV, 2 cycles
[20] = Subject 010, Colorectal, 12.0 mg/kg weekly IV, 4 cycles
[21] = Subject 012, Breast, 12.0 mg/kg weekly IV, 2 cycles
[22] = Subject 013, Prostate, 12.0 mg/kg weekly IV, 2 cycles
[23] = Subject 014, Vulvar Melanoma, 12.0 mg/kg weekly IV, 2 cycles

## AB-16B5: humanized IgG2 monoclonal antibody targeting sCLU; light chain SEQ ID NO:11, heavy chain SEQ ID NO:12
[1]; [10]
  Necrosis Post-Treatment: 10%
[1]; Subject 006, Breast, biopsy site Skin
  Necrosis Pre-Treatment: 0%
[1]; [11]
  Necrosis Post-Treatment: 0%
[1]; Subject 007, Gastric, biopsy site Gastric
  Necrosis Pre-Treatment: 0%
[1]; [12]
  Necrosis Post-Treatment: 5%
[1]; [13]
  Necrosis Pre-Treatment: 0%
[1]; [14]
  Necrosis Post-Treatment: 10%
[1]; [15]
  Necrosis Pre-Treatment: 0%
[2]; [16]
  best overall response progressive disease (PD), number of subjects: 6 subjects
  best overall response progressive disease (PD), share of subjects: 43%
  best overall response stable disease (SD), number of subjects: 8 subjects
  best overall response stable disease (SD), share of subjects: 57%
[2]; [17]
  Best Overall Response: PD (progressive disease (PD))
  Tumor Response at Last Assessment Non-Target Lesions: PD (New (progressive disease (PD))
  Tumor Response at Last Assessment Target Lesions: PD (progressive disease (PD))
[2]; Subject 002, Endometrium, 3.0 mg/kg weekly IV, 4 cycles
  Tumor Response at Last Assessment Target Lesions: PD (progressive disease (PD))
[2]; [18]
  Best Overall Response: PD (progressive disease (PD))
  Tumor Response at Last Assessment Non-Target Lesions: PD (New (progressive disease (PD))
[2]; [19]
  Best Overall Response: PD (progressive disease (PD))
  Tumor Response at Last Assessment Target Lesions: PD (progressive disease (PD))
[2]; Subject 007, Gastric, 9.0 mg/kg weekly IV, 8 cycles
  Tumor Response at Last Assessment Non-Target Lesions: PD (New (progressive disease (PD))
[2]; Subject 008, Thyroid, 9.0 mg/kg weekly IV, 4 cycles
  Tumor Response at Last Assessment Non-Target Lesions: PD (New (progressive disease (PD))
[2]; Subject 009, Lung, 12.0 mg/kg weekly IV, 6 cycles
  Tumor Response at Last Assessment Non-Target Lesions: PD (New (progressive disease (PD))
[2]; [20]
  Tumor Response at Last Assessment Non-Target Lesions: PD (New (progressive disease (PD))
  Tumor Response at Last Assessment Target Lesions: PD (progressive disease (PD))
[2]; [21]
  Best Overall Response: PD (progressive disease (PD))
  Tumor Response at Last Assessment Non-Target Lesions: PD (progressive disease (PD))
[2]; [22]
  Best Overall Response: PD (progressive disease (PD))
  Tumor Response at Last Assessment Non-Target Lesions: PD (New (progressive disease (PD))
[2]; [23]
  Best Overall Response: PD (progressive disease (PD))
  Tumor Response at Last Assessment Non-Target Lesions: PD (New (progressive disease (PD))
[2]; Subject 015, Ovarian Cancer, 12.0 mg/kg weekly IV, 4 cycles
  Tumor Response at Last Assessment Non-Target Lesions: PD (New (progressive disease (PD))
[2]; patient with advanced gastric cancer
  time on treatment with stable disease (SD) and clinical benefit: 24 weeks
[3]; [10]
  E-cadherin Expression in Post-Treatment: Increase
[3]; [11]
  E-cadherin Expression in Post-Treatment: Increase
[3]; Subject 007, advanced gastric cancer, paired tumor biopsies
  vimentin expression after treatment: loss of vimentin expression
[3]; [12]
  E-cadherin Expression in Post-Treatment: Decrease
[3]; [14]
  E-cadherin Expression in Post-Treatment: did not change; also recorded: No change
[4]; Rhesus monkeys, weekly administration
  No Observable Adverse Effect Level (NOAEL): 100 mg/kg/dose
[4]; rhesus monkey, in vivo
  signs of overt toxicity: did not result in any signs of overt toxicity
[4]; rhesus monkey, in vivo, 100 mg/kg
  hepatocellular vacuolation in the liver: 2 animals
[5]; Cycle 1, 1.5 mg/kg (N = 1)
  AUC0-t: 230,321 ng*h/mL
  Cmax: 17,958 ng/mL
  Thalf: 9.35 h
  Tmax: 1.17 h
[5]; Cycle 1, 3.0 mg/kg (N = 1)
  AUC0-t: 645,602 ng*h/mL
  Cmax: 50,736 ng/mL
  Thalf: 7.39 h
  Tmax: 1.08 h
[5]; Cycle 1, 6.0 mg/kg (N = 3)
  AUC0-t: 1,357,773 ng*h/mL
  Cmax: 117,663 ng/mL
  Thalf: 6.99 h
  Tmax: 1.00 h
[5]; Cycle 1, 9.0 mg/kg (N = 3)
  AUC0-t: 2,083,091 ng*h/mL
  Cmax: 162,103 ng/mL
  Thalf: 10.78 h
  Tmax: 2.00 h
[5]; Cycle 1, 12.0 mg/kg (N = 7)
  AUC0-t: 4,045,786 ng*h/mL
  Cmax: 256,977 ng/mL
  Thalf: 11.99 h
  Tmax: 1.12 h
[5]; Cycle 2, 1.5 mg/kg (N = 1)
  AUC0-t: 188,584 ng*h/mL
  Cmax: 15,662 ng/mL
  Thalf: 7.97 h
  Tmax: 1.00 h
[5]; Cycle 2, 3.0 mg/kg (N = 1)
  AUC0-t: 688,934 ng*h/mL
  Cmax: 61,466 ng/mL
  Thalf: 6.82 h
  Tmax: 1.05 h
[5]; Cycle 2, 6.0 mg/kg (N = 3)
  AUC0-t: 1,351,156 ng*h/mL
  Cmax: 120,466 ng/mL
  Thalf: 7.70 h
  Tmax: 1.03 h
[5]; Cycle 2, 9.0 mg/kg (N = 3)
  AUC0-t: 2,459,988 ng*h/mL
  Cmax: 163,840 ng/mL
  Thalf: 13.75 h
  Tmax: 1.08 h
[5]; Cycle 2, 12.0 mg/kg (N = 7)
  AUC0-t: 4,147,243 ng*h/mL
  Cmax: 230,268 ng/mL
  Thalf: 21.04 h
  Tmax: 1.04 h
[5]; dose range of 3.0 to 12.0 mg/kg, Cycle 1 and Cycle 2
  increase of mean Cmax and AUC0-t (systemic exposure) with the dose: dose proportional
[5]; weekly IV infusion
  accumulation of AB-16B5 between Cycle 1 and Cycle 2: No significant accumulation
[6]; CA 15-3, CA-125, CA 19-9, CEA, LDH and PSA, correlated with disease progression
  tumor biomarker levels over time: increased over time
[6]; in few patients
  level of CEA: remained stable or decreased
[7]; patient with inoperable metastatic gastric cancer, small fragments
  immune infiltrate, on-treatment biopsy: infiltrated by a mix neutrophilic and mononucleated immune cells infiltrate
[7]; patient with thyroid cancer metastatic to the lungs, edge of fragment
  immune infiltrate, on-treatment biopsy: lymphoplasmacytic infiltrate was observed
[7]; patient with thyroid cancer metastatic to the lungs, single agent
  necrosis of tumor fragments, on-treatment biopsy: essentially all tumor fragments were necrotic
[8]; 4 pre-treatment biopsies, baseline
  presence of AB-16B5 in all pre-treatment tumor biopsies: negative
[8]; 5 post-treatment biopsies
  presence of AB-16B5 in all post-treatment tumor biopsies analyzed: confirmed
[8]; Subject 009, Lung, biopsy site Liver
  Detection of AB-16B5 in Tumor Biopsies, Post-Treatment Biopsy: Positive
[8]; Subject 010, Colorectal, biopsy site Liver
  Detection of AB-16B5 in Tumor Biopsies, Post-Treatment Biopsy: Positive
[8]; Subject 011, Colorectal, biopsy site Lymph node, baseline
  Detection of AB-16B5 in Tumor Biopsies, Pre-Treatment Biopsy: Negative
[8]; [13]
  Detection of AB-16B5 in Tumor Biopsies, Post-Treatment Biopsy: Positive
[8]; Subject 012, Breast, biopsy site Skin, baseline
  Detection of AB-16B5 in Tumor Biopsies, Pre-Treatment Biopsy: Negative
[8]; [15]
  Detection of AB-16B5 in Tumor Biopsies, Post-Treatment Biopsy: Positive
[8]; Subject 014, Vulvar melanoma, biopsy site Vulva, baseline
  Detection of AB-16B5 in Tumor Biopsies, Pre-Treatment Biopsy: Negative
[8]; Subject 015, Ovarian, biopsy site Lymph node
  Detection of AB-16B5 in Tumor Biopsies, Post-Treatment Biopsy: Positive
[8]; Subject 015, Ovarian, biopsy site Lymph node, baseline
  Detection of AB-16B5 in Tumor Biopsies, Pre-Treatment Biopsy: Negative
[9]
  sCLU serum concentrations following dosing: decreased significantly
